Measurements taken from publication PMC7036363, “Analysis of HrpG regulons and HrpG‐interacting proteins by ChIP‐seq and affinity proteomics in Xanthomonas campestris”.

Legend:
[1] = target: recombinant HUXcc-His6 (Xanthomonas campestris pv. campestris); experiment: MST; HUXcc labelled with NT-647 (RED-NHS kit), purified HrpG titrated from 0.001 to 17 μM in a 1:1 series dilution; 1 x MST buffer (50 mM Tris, 150 mM NaCl, 10 mM MgCl2, pH 6) with 0.05% Tween; Monolith NT.115, standard treated capillaries; KD-Fit function
[2] = target: HrpG (Xanthomonas campestris pv. campestris 8004) (UniProt Q8PBF6); experiment: MST; conditions: MST: 50 mM Tris-HCl pH 7.4, 150 mM NaCl, 10 mM MgCl2, 0.05% Tween-20; EMSA: 10 mM Tris-HCl pH 7.5, 50 mM KCl, 1 mM DTT, 50 ng poly(dI:dC), 0-40 uM protein …
HrpG = HrpG (Xanthomonas campestris pv. campestris …, UniProt Q8PBF6 1-262); experiment: MST; 10 mM MgCl2; MST: 50 mM Tris-HCl pH 7.4, 150 mM NaCl, 10 mM MgCl2, 0.05% Tween-20; EMSA: 10 mM Tris-HCl pH 7.5, 50 mM KCl, 1 mM DTT, 50 ng poly(dI:dC), 0-40 uM protein, 28 C 30 min; conditions: protein: recombinant; text writes HrpG-His6; chain copies: 2; label: 5'-FAM; blunt

| Molecule | Kd [2] | also measured |
| --- | --- | --- |
| HrpG-His6 recombinant protein (natural protein) |  | Kd [1]: 0.64 µM |
| hpa2p MST fragment | 2.22 µM |  |
| hrcUp MST fragment | 1.79 µM |  |
| hrpEp MST fragment | 2.3 µM |  |
| Motif-1 (HrpG consensus motif probe) (dsDNA) DNA 1: CTTCGAAGTGAGAAATTCTATTGGATCCGC DNA 2: GCGGATCCAATAGAATTTCTCACTTCGAAG |  | Kd (HrpG): 6.96 ± 1.44 µM |
| Motif-2 (mutated HrpG motif probe) (dsDNA) DNA 1: CTTCGAAGTGAGAACGGAATCCGGATCCGC DNA 2: GCGGATCCGGATTCCGTTCTCACTTCGAAG |  | binding result (HrpG): no binding |
